Results: patent US9434785

Key:
[1] = target: T1, recombinant human OX40L (extracellular domain with FLAG peptide motif and isoleucine zipper motif) (human, UniProt P23510 51-183, biotinylated in the HTRF assays (sites not given)); assay: cell-based or functional assay
T1 sequence (looked up): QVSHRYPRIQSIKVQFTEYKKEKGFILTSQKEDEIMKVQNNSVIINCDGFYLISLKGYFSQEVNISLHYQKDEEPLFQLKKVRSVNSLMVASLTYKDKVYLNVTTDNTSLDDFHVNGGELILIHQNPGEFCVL

[2] = target: T1, recombinant human OX40L (extracellular …); assay: HTRF ligand/receptor neutralisation; competitor OX40RFc-AF647 on biotinylated hOX40L; mean of three experiments, SEM +/-0.17
Method: (§1) Profiling of Fully Human Recombinant Anti-OX40L Antibodies in HTRF Ligand/Receptor Neutralisation Assay In order to determine whether recombinantly expressed fully human purified IgG inhibit human OX40L binding to OX40RFc the following method was carried out. Fully human purified IgG or other inhibitor were tested in order to establish the clone potency as measured by IC$50$ values in the assay. Antibodies recombinantly expressed and purified were titrated by diluting in HTRF assay buffer and 5 μL of this titration transferred to a white 384 well low volume non-binding surface polystyrene plate (Greiner). Biotinylated OX40L was diluted in HTRF assay buffer to a working concentration of 2.4 nM and 5 μL added. OX40RFc directly labelled with AF647 was then diluted to working concentration of 10 nM and 5 μL added. […] Plates were covered, protected from light and incubated at room temperature for 3 hrs prior to reading time resolved fluorescence at 620 nm and 665 nm emission wavelengths using an EnVision plate reader (Perkin Elmer). Data were analysed by calculating delta F as described in Equation 4 and percentage of receptor for each sample according to Equation 5 or in some cases Equation 6. IC$50$ values were determined using GraphPad Prism software by curve fitting using a four-parameter logistic equation (Equation 7) (FIG. 1).

[3] = target: T1, recombinant human OX40L (extracellular …); assay: HTRF ligand/receptor neutralisation; competitor OX40RFc-AF647 on biotinylated hOX40L; mean of three experiments, SEM +/-0.04
Method: as §1

[4] = target: T1, recombinant human OX40L (extracellular …); assay: SPR (ProteOn XPR36), apparent affinity, antibody captured on anti-mouse IgG, hOX40L at 256 nM, 1:1 model, 25 C
Method: SPR analysis was carried out using the ProteOn™ XPR36 Array System (BioRad). Anti-mouse IgG (GE Healthcare BR-1008-38) was immobilised on a GLM biosensor surface using amine coupling, the surface was then blocked using 1 M ethanolamine. Test antibodies were captured on this surface and recombinant hOX40L (human and rhesus) were used at a single concentration of 256 nM, binding sensorgrams were double referenced using a buffer injection (i.e. 0 nM) to remove baseline drift and injection artefacts. Apparent affinities for the OX40L-antibody interaction were determined using the 1:1 model inherent to the ProteOn XPR36 analysis software. The assay was run using HBS-EP (Teknova) as running buffer and carried out at 25° C.

B1: 10A07 (human) (antibody, V domains shown)
VH: EVQLVESGGVLVQPGGSLRLSCAASGFTFSSYIMTWVRQAPGKGLEWVSGISGSGGGTYYADSMKGRFTISRDNSKNTLYLQMNSLRVEDTAVYYCAKDRLGPITLVRGGYYYGMDVWGQGTTVTVSS
VL: DIQMTQSPSSLSASVGDRVTITCRASQSISDYLNWYQQKPGKAPKFLIYAASSLQSGVPSRFSGSGSGTDFTLTVSSLQPEDFATYYCQQSYSTPRTFGQGTRVEIK
notes: also called 10A7; mAb 10A7
Q: B1 was tested. Which “Primary T-cell Assay IC50 nM (recombinant OX40L induced IL2 release from primary isolated T-cells)” value [1] did it give?
A: 0.83 nM

Q: What about the IC50 [2] of the same binder?
A: 1.2 nM

B2: 2D10 (human) (antibody, human IgG4 S228P, kappa, V domains shown)
VH: EVQLVESGGGLVQPGGSLRLSCAASGFTFSNYAMNWVRQAPGKGLEWVSTISGSGGATRYADSVKGRFTISRDNSRNTVYLQMNSLRVEDTAVFYCTKDRLIMATVRGPYYYGMDVWGQGTTVTVSS
VL: DIQMTQSPSSLSASVGDRVTITCRASQSISSYLNWYQQKPGKAPNLLIYAASSLQSGVPSRFSGSGSETDFTLTISSLQPEDFATYYCQQSHSVSFTFGPGTKVDIKR
notes: Recombinant fully human IgG4-PE (Ser228Pro, Leu235Glu) with a human kappa light chain; also called 02D10; 2D10 IgG4PE
Q: Which “Primary T-cell Assay IC50 nM (recombinant OX40L induced IL2 release from primary isolated T-cells)” value [1] does the source give for B2 here?
A: 0.81 nM

Q: What about the IC50 [3] of the same binder?
A: 0.75 nM

B3: 9H04 (hybridoma) (antibody, V domains shown)
VH: QVQLVESGGGLVKPGGSLRLSCAASRFTLSDYYMTWIRQAPGKGLEWVSYISSSGNTIYYADSVKGRFTISRDNAKNSLYLQMNSLRAEDTAVYYCARDLSGSYWDYYYGMDVWGQGTTVTVSS
VL: AIQLTQSPSSLSTSVGDRVTIACRASQGINNALAWYQQKPGKAPKLLIYDASSLESGVPSRFSGSGSGTDFTLTISSLQPEDFATYYCQQFNSYPRTFGQGTKVEIK
notes: Murine/human chimeric antibody purified from hybridoma supernatant (human variable domains, mouse constant regions); also called 09H04
Q: B3 was tested. Which Kd [4] did it give?
A: 5.3 nM

B4: 19H01 (hybridoma) (antibody, V domains shown)
VH: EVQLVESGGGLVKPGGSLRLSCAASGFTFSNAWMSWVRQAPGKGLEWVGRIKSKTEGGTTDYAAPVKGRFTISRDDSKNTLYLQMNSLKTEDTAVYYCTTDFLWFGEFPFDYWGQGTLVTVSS
VL: DIQMTQSPSSLSASVGDRVTITCRASQGISNYLAWYQQKPGKIPKLLIYAASTLQSGVPSRFSGSGSGTDFTLTISSLQPEDVATYYCQKYNSAPRTFGQGTKVEIK
notes: Murine/human chimeric antibody purified from hybridoma supernatant (human variable domains, mouse constant regions)
Q: How did the Kd [4] turn out when B4 was run?
A: 2.2 nM
